Article doi:10.1101/598128 (bioRxiv, 2019)

T1: His-Orc1 (subunit of the purified His-ORC complex) (budding yeast, UniProt P54784 1-913)
T1 sequence: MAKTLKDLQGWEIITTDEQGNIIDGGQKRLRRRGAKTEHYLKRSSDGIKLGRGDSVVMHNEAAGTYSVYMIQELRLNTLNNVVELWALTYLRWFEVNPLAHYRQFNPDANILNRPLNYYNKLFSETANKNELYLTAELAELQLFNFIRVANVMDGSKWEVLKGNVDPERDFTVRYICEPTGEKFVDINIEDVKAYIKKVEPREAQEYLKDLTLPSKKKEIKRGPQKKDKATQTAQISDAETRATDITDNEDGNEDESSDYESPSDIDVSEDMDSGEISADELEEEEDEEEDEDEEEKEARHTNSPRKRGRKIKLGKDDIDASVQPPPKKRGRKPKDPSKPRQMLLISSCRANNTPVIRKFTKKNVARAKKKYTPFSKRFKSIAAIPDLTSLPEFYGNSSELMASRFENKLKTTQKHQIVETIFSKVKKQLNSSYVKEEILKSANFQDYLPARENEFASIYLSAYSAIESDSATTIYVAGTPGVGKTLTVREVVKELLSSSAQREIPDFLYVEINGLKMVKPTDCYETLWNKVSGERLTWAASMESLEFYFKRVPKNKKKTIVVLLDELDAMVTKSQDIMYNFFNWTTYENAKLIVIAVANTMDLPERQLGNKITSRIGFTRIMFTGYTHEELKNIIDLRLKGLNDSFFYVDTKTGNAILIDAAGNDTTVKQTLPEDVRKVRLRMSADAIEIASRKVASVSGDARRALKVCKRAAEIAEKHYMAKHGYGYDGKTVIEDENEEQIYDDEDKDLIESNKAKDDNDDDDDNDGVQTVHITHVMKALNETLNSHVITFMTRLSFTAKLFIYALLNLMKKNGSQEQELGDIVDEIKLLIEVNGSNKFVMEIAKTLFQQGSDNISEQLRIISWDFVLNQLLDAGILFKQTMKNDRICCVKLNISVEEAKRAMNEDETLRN

T2: 6xHis-Hop1 (budding yeast, UniProt P20050 1-605)
T2 sequence (looked up): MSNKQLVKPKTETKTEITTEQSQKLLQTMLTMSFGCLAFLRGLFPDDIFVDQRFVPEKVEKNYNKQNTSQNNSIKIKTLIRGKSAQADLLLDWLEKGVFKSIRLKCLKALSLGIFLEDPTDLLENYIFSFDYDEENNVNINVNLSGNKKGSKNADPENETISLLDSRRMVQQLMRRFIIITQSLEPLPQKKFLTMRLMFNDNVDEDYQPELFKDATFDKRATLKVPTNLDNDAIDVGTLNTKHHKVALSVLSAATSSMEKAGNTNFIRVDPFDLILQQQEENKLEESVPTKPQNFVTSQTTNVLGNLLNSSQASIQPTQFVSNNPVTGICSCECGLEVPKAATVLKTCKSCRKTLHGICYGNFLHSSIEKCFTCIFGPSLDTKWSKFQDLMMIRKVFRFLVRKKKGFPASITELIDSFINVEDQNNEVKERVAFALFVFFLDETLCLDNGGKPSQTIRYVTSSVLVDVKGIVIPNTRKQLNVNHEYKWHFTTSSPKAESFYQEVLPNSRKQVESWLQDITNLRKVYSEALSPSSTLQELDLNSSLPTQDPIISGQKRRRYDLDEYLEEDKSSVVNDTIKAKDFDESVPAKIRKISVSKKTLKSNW

B1: His-MBP-Pch2 (natural protein, budding yeast, UniProt P38126 1-564, looked up)
chain: MSYIVDLQVRGSSLRVIKCMFREDEQISSLHSGSDSKQNSNKKLGEFLNLLKAVVKRKLESFPKDRLKTSIITGQELMREGQGSIEIKDPPTEAQQHLIRSLAKVLLHQFSSINGKVNTVNEGQDNLFLSLFVKKISIEQQSTSHVSIKLNFHEKINLGQHIDSILDSEETNESDTYHMGSVDEFIIYPFCCLEEQDELKNGSILSTEFDKIDLELDEDDGFEGETLNNCINSVGNFDIPLSKQTLNLVNISYLPGTTFEGQWESLYFGNNIKERLYSYATISLKIARFKQTGDSNQEDITTLITNNKLLLVHGPPGTGKTTLCKALCQKLSVRREFSDGSDTIDTNYKGIIIELSCARIFSKWFGESSKNISIVFKDIEELLKVNEGRGIFICLLIDEVEAIASSRTNLSSRNESTDGIRVVNTLLTQLDRLKKYHNFLALATSNLLDSLDDAFVDRADGVFYVGNPTAEGILHILKVCIEEMITSGIILFHARSTGVKFFNKYQDILRKIAIKCSTVDISGRTIRKLPLMCLSEYFRTFPVDDDEFVLALAMSARKLSAARK

Columns and labels:
His-MBP-Pch2 = target: B1; test: cross-linking
[1] = target: T1, His-Orc1 (subunit of the purified …); test: cross-linking
SEC = target: the molecule itself; test: SEC
6xHis-Hop1 = target: T2, 6xHis-Hop1; test: pull-down

| Binder | binding result (His-MBP-Pch2) | binding result [1] | stoichiometry N (SEC) | binding result (6xHis-Hop1) |
| --- | --- | --- | --- | --- |
| Orc5 (subunit of the purified His-ORC complex) (natural protein, budding yeast) MNVTTPEVAFREYQTNCLASYISADPDITPSNLILQGYSGTGKTYTLKKYFNANPNLHAVWLEPVELVSWKPLLQAIARTVQYKLKTLYPNIPTTDYDPLQVEEPFLLVKTLHNIFVQYESLQEKTCLFLILDGFDSLQDLDAALFNKYIKLNELLPKDSKINIKFIYTMLETSFLQRYSTHCIPTVMFPRYNVDEVSTILVMSRCGELMEDSCLRKRIIEEQITDCTDDQFQNVAANFIHLIVQAFHSYTGNDIFALNDLIDFKWPKYVSRITKENIFEPLALYKSAIKLFLSTDDNLSENGQGESAITTNRDDLENSQTYDLSIISKYLLIASYICSYLEPRYDASIFSRKTRIIQGRAAYGRRKKKEVNPRYLQPSLFAIERLLAIFQAIFPIQGKAESGSLSALREESLMKANIEVFQNLSELHTLKLIATTMNKNIDYLSPKVRWKVNVPWEIIKEISESVHFNISDYFSDIHE | binds |  |  |  |
| B1 |  | binds | 6 | binds |
